{"source": "the domain aggregation screens of Martell et al. (2025)"}
{"assay": "soluble fraction after stress (log2 fold change); higher = more stays soluble; pooled small domains, quantitative proteomics", "conditions": "stress: 50 degC", "outline": "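Quantitative proteomics served as the high-throughput read-out for pooled custom libraries of small protein domains. Each was stressed at 50°C. Aggregation propensity is expressed as the base-two log fold change in soluble protein after stress. A higher value means a larger share of the protein remains in solution.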"}
{"sequence": "HMDFGPDSAAPLADGSAPEGFDVKGNADSMLYHEPDGRWYDATVAEVWFRTAEAAQAAGFTKAGS", "soluble fraction (log2)": -0.0829}
{"sequence": "HMDFNNQLKRIRESNGLTQEQLAKILNVSRQSISSWEVGRNFPDLEMIVIISKEFNISLDQLIMG", "soluble fraction (log2)": -2.82}
{"sequence": "HMDFQTDVFISRFAELKKESGETNKDLQDVFELSLSALINYQTGKRIPDIAFLHKLAQHFGVSADYLLGLS", "soluble fraction (log2)": -0.549}
{"sequence": "HMDFRQALNTSADSDANKVALLESIVKGKYVSSTVNLLRRVITLRRGRSIDATLAAYSHYVSIR", "soluble fraction (log2)": 0.313}
{"sequence": "HMDFSVTIKGTSFPVMVSLKKMKQVRLKVFPSGEIKLSAPVGTPEKWIVEYLNDKMSWIEEKMDLFVQ", "soluble fraction (log2)": -0.787}
{"sequence": "HMDFTMSEIQTAMAALPRGYRTVVQLYLVDGYSHKEIAEMLGVDVNTSKSQLSRGRKQLQAFLAAMS", "soluble fraction (log2)": -0.674}
{"sequence": "HMDFYIVLGVDRAASVSDVKRAYRRLARKYHPDINPGDREAEAFFLRVTEAYETLIDPDRRQDYDVNG", "soluble fraction (log2)": -0.94}
{"sequence": "HMDFYPARVKWFNKSKGFGFANIFKSNDDIFLHIETLKRSGLSDLETGEAIVLTVTEGPRGKMADTILTWD", "soluble fraction (log2)": -0.433}
{"sequence": "HMDGDFGMNLDWQPSEHFPTLARQAGIPADHITAEAIAEFRSYWIGQGKAMTQYQWDHKLLTNLKATKTR", "soluble fraction (log2)": -1.14}
{"sequence": "HMDGEAQTYVEYGKWFPADLPLEAVRQLADGVPVTKELVAALNPRRSEWEEIKAGLDKIGYPNELL", "soluble fraction (log2)": 0.0308}
{"sequence": "HMDGEITLYKVVGYIKASDFDDKKNGFVIADDYITKRQAEDTMYEWKRKKTYPYLEIKEYKGKDPYK", "soluble fraction (log2)": 0.295}
{"sequence": "HMDGLAEQLFNILREELESGDYKPGQKLMSESALAQKYGVSRLTVRAAIARLSALDYVETRNGEGSFVKKR", "soluble fraction (log2)": 0.0422}
{"sequence": "HMDGLDFIINENGKIANINEEGELLAKGENIMLGYYKDSISTNNTINNGWLHTGDIAKIDNDGFIYL", "soluble fraction (log2)": 0.0618}
{"sequence": "HMDGMNEELYQKFFALVGNPDEGKRISQAKAAQALGYSSAVVSAYKNRTYNGNIKAFEDAVQAWLKREERR", "soluble fraction (log2)": 0.000413}
{"sequence": "HMDGPELYESMKAIVPDQLDRTIFLTGGAYTPRAQEFLARVPNQQMEKPFEFEALRSLLARLT", "soluble fraction (log2)": 0.0477}
{"sequence": "HMDGTEVTTEPPGAQVEYEGKQFGPTPARIPGLVAGKSLHITLPGYLEVKPKIKAVPKDGEPLSFTLTAI", "soluble fraction (log2)": 0.0823}
{"sequence": "HMDGVEVVTKPAGAQIEFAGKSYGPSPVHIPGLVAGSQLILRLPGFQAATVRLRTAPDKSKALEYTLQPA", "soluble fraction (log2)": -0.0828}
{"sequence": "HMDGVLVYKEGMTVADMATGLGKTIAQVVMKLMQLGIMANQNQSVDRETVELVALDFGYELKD", "soluble fraction (log2)": -1.76}
{"sequence": "HMDGVSAEAVKSHIKTLIDGEGAKILSDDTLVDLLNAKGFDIARRTVAKYREAMGIGSSVQRRRQKKMG", "soluble fraction (log2)": 0.178}
{"sequence": "HMDGYLQLASKKNELITQLKTPPKPKRLFKDFEDRVYLITEYKVFVVSIFQNEFRLRPVNKDDFYRYTT", "soluble fraction (log2)": 0.207}
{"sequence": "HMDGYTAVDKAVSDQYYTKENQLYFVSMGNFFSLGAKKIEGADISSFQILTTEYARDLQHLYFNGKV", "soluble fraction (log2)": -0.383}
{"sequence": "HMDHFFSKYDSIVNHTVQKKETLFGISKKYGLTINEVIKFNPGIQIDKLKRRSVLIIPLMKKN", "soluble fraction (log2)": -0.917}
{"sequence": "HMDHKSALQELLAPRGLQPSYRLVEEAGPAHARVFTSEVSVDGVARGSGTGTTIKMSEQAAAREALASLG", "soluble fraction (log2)": 0.223}
{"sequence": "HMDHKSQLQEWAQSTLGETPRYVTIAETGPDHDKELTVELIIGRKSYSIAKGKSKKQAEQSAARIALGLLM", "soluble fraction (log2)": -0.653}
{"sequence": "HMDHKSSYWSVKEANLFPELLKQFGSQWSLISDKLGTKSTTMVRNYYQRNAAQLGWKSVVEEADFKRNA", "soluble fraction (log2)": -0.436}
{"sequence": "HMDHTYKHIELTGSSEKGIEEAVQNALAKASESVQNMRWLEVTDTRGHIEDGRVAHWQVTVKVGFTL", "soluble fraction (log2)": -0.0248}
{"sequence": "HMDHVEDRMVLEVVLKKLTEEERRIVMLHAVSGLKHREIAKALDIPLSTVLSKYKRTLKKLEAYLMEME", "soluble fraction (log2)": -1.78}
{"sequence": "HMDIADKLTKREFEIFIAIAMNKSRFDIANELGLSAKTVSNGLTVIKRKLNAVPSQFSAIAAKHGYIG", "soluble fraction (log2)": -2.66}
{"sequence": "HMDIAYFSNAELNDAFIQFLNMRQEAGKQLNGYQIQILTEKLERVADTDEDRISAVKNAIAGGWSNFYPPK", "soluble fraction (log2)": -0.272}
{"sequence": "HMDIDASEVRGIISQYINEPDGRVSYILETIQKKYRYLPEEAIRIVAQELEVPLTQLFGVATFYAAFSL", "soluble fraction (log2)": 0.0443}
{"sequence": "HMDIDLNTIKKITLDDIHAFLSYLTTTYHSKAATRARKASSIRVFFNYLSAKANLIEVNPAQNLETPKLD", "soluble fraction (log2)": 0.0581}
{"sequence": "HMDIEELLSRSTDRLSRQTEIRRLLADAQGRPNISSLARRFKVARRTVIRDLQELIRRGEVPPEIYPK", "soluble fraction (log2)": -0.744}
{"sequence": "HMDIEFSDELRTFIDEWSKKEGGLVMMLHRIQNEYGFIPRTAAEKLSLISGIPLARIYGVITFYHFFKT", "soluble fraction (log2)": -0.461}
{"sequence": "HMDIGNKIKELRTEQKMTQSDLAERLGVTKSSISSYENGSRLPSYDILLKIARIFKVSTDILLG", "soluble fraction (log2)": 0.514}
{"sequence": "HMDIGTRQRIIAAAMELFRQKGMDGMSMRELAERAGVNKGLLHYYFTTKEAIFREVFVHQVEM", "soluble fraction (log2)": -0.15}
{"sequence": "HMDIIIEEGIDESLSTDDAILDLLGRASDAFSNAQKALLEGDLGSYQKLIEQAERLVKKATELLGENN", "soluble fraction (log2)": -0.0938}
{"sequence": "HMDIMNNILINRIKKILTEQNMSKADLSRLTGISNSSLSEYLNGKYEPKQDKIALIAKALHVSPAWLMGF", "soluble fraction (log2)": -0.915}
{"sequence": "HMDINNTNFSRDVDNLLQNEEFIKWRIFRTKEWEDYWENFRKENPHMEDALQEAISRFNAVK", "soluble fraction (log2)": 0.156}
{"sequence": "HMDINVDILPLLKTMTDTLRKVIELDIPFLKDARVQRVNSLDELLLRADITTAEKFRKVFEAYQIEADFGK", "soluble fraction (log2)": -0.804}
{"sequence": "HMDIPDIGHNVRIEVDGHNGKTTHEGIILHPAAPNHITIKLANGYNASYKLEEIINIEILGELGDDSKI", "soluble fraction (log2)": -0.0692}
{"sequence": "HMDIPITFEQLPAKAQAFVKQYFKIEEIASVWRDDDIHDQDYKVYFNDGSEIEFYANGDWEEV", "soluble fraction (log2)": -0.62}
{"sequence": "HMDIPTSAEAVRAYLASGFIKGIGEATARMLVDKFGAETLEIIKTEPMKLTKISGIGPKKAKMIHESYLEK", "soluble fraction (log2)": 0.177}
{"sequence": "HMDIRLMPGTVLTREYQGIEHRVTVAQDGQYEFEGRRYPSLSMIAREITGTRWSGPLFFGVK", "soluble fraction (log2)": -0.657}
{"sequence": "HMDISEIEKRLLDFLEMPRSRKEIAEHLGIRTISYAIQTYITPLIDKKLVKMTIPESPRSHSQQYVRIN", "soluble fraction (log2)": -0.92}
{"sequence": "HMDISRMNLSQTERAVLSVLDSQPLHTEEIIASADLRAGAIHSALISLQLKGLIKQLPGNLYVK", "soluble fraction (log2)": -0.0722}
{"sequence": "HMDITKPKISFEPGEMVRVVDGPFNDFSGVVEEVNYEKSKVRVAVLIFGRSTPVELQFNQIEK", "soluble fraction (log2)": -0.252}
{"sequence": "HMDITTIIADVPGPKTQIKVDIKNTSLHIFGGMNFKKEIDIGDNKEIINIKYINGTLTVKLKT", "soluble fraction (log2)": 0.089}
{"sequence": "HMDIVGAINKIESMKQDRYLAMHPYSITHSADGYYRTYLPADDGKRKQIKKKSKSDLEKVVIDYWTKRS", "soluble fraction (log2)": 0.0365}
{"sequence": "HMDIVKVYTTARAGETLASVAKRTGVDVARLAQWNDIPLKRAKQKLKTGKALALWVQREHASAYSNAPP", "soluble fraction (log2)": -0.151}
{"sequence": "HMDIVQLSEKINVMKMEIPAQAIGKTVLEVNFRARFDLNIIAIENGGKLVEVIKPDYVFREGDILFLSGS", "soluble fraction (log2)": -1.16}
{"sequence": "HMDIYENIDKELSKQGKSRRKLAIAAGIPPSTFQSMMERKRGLSVENLRKIAEVLNLKWYDLL", "soluble fraction (log2)": -0.195}
{"sequence": "HMDIYKKFIIPATYFGSRLDHVLSELLPELSRSKIQNMIKQNLVMINGNHAAQKQKVVGDEEIIIKDI", "soluble fraction (log2)": -0.0556}
{"sequence": "HMDKAALGQKLRQARLDKGYTQQSLSEKADIGEVYLSEIERGLKMPSMNLFIKLITALDISADYILR", "soluble fraction (log2)": -1.44}
{"sequence": "HMDKDTFGEFENVKLTEEEYNKLVEKLGENNTKLMIEELSTGIASKGYKYKSHYATILSWSRRRVTKLQER", "soluble fraction (log2)": 0.0444}
{"sequence": "HMDKEIKILKEKRLDDVQQAIRELSPQKRRVVEMKLYHNSTNQEVADKLAISVNTVKSLYTSALHDLRRIL", "soluble fraction (log2)": -0.139}
{"sequence": "HMDKESQTMFRLLTGVSGVGPKVGLAILSVLSPDRVVLAISAGDHKAFTAASGVGPKLGQRIVLELKDKVG", "soluble fraction (log2)": -3.12}
{"sequence": "HMDKEVLYVTVNDKKVKLDGKNHIFIDIFNYIDFDIKKPNGSIVLKLNGKNAGYMDEIKDGDKIEIYWDK", "soluble fraction (log2)": 0.0969}
{"sequence": "HMDKEVMEAVLRILYDDDFNPDQRDAILYFFVQELDQRTISEITGAKIGTVKKRIHDGLKKLRQKLAKEDL", "soluble fraction (log2)": -1.36}
{"sequence": "HMDKGEQILQQALDKLPPKQRQVFEMRYFDEMPYREIATITETSEGALKASYHHAVKKIQQYISHL", "soluble fraction (log2)": -0.397}
{"sequence": "HMDKGQRGWINLVSVPTARVIIDGYDTGHETPLYGYEVERGKRKVTLISLDGTYERTYEIRIEPGTTTRVR", "soluble fraction (log2)": -0.775}
{"sequence": "HMDKIEVVEVDMSKPYEDMTVTELQNVILDKLASNGPVTNQMKKDVSENIYHDSLVNWAKSF", "soluble fraction (log2)": 0.0697}
{"sequence": "HMDKIYVYTTRGQVIELPRGSTAIDFAYKIQTDIGNMIIAAIVNDKLVDANYVLHNKDRVKIVTS", "soluble fraction (log2)": -1.92}
{"sequence": "HMDKLNKELVSRMMDDAAWKELSKDFPWTEQLLEKYMNYVDWKEISRNYNVVWTKSLLEKFKHRLDWHE", "soluble fraction (log2)": -1.44}
{"sequence": "HMDKMIFFKNKENNDDNQLVKIGALLIHAAKIDEDFSQEEENIIKQTLINFGAGNKNINEIIEKAKKME", "soluble fraction (log2)": 0.389}
{"sequence": "HMDKMVAVPNVRGIEASEAEATLIAQGLFVEVEKSDSEDANVAYGEVYAQTPKAGNRVEEGTTITIKVRTE", "soluble fraction (log2)": 0.0555}
{"sequence": "HMDKNNLHSVLQDVPGIGPKRMKELMRAFGSVEGMKKAGLEELAAVKGMNHKAAEALIQFFR", "soluble fraction (log2)": 0.199}
{"sequence": "HMDKQGGWLTMAEAAEKLGVTHHVIRRLIKEKILPAEQVMRHAPHQIRIVDLESDAVAEALRHR", "soluble fraction (log2)": -0.215}
{"sequence": "HMDKVVGSAGDVTSRITANSGEVKIDGQIWQARSYDETIAIEAGEKIEVFDLDGITLIVYPI", "soluble fraction (log2)": -0.604}
